The DeepSol protein solubility set

assay: soluble on expression in E. coli; label from the status in PepcDB or PDB records

| Sequence | soluble on expression in E. coli |
| --- | --- |
| MSLVHQLLAQMENGYMKIIKENLVGIYLHGSYAFGTYCHSVSDLDVLIVVYEKLTIDEKKQLLDYTINILDKWAPKKGIEFHVLQLKDTINLSYPIPFDLHFSPIHRSRYLTNKNKYIEDMMGYDEDLVAHLMITKLYGKVLVGKPIDSVFGWIDQKKYFESIVADVKEAKKEIVQQPMYVILNMCRVMAFKQENKILSKRAGGEWGLVHFPTNHHSLIQLALKEYRGETVLLEQYNDSELNDFADIMLSLLFKEGHHHHHH | not soluble |
| MSLVIFIMKKRYICILPYSLSYGGVFIDCKEVIANYWNFRSSTYKNGINGFDEEERAVWKQIFENSLASGKRLKVLDVGTGTGFLALLFAEMGHEVSGIDLSEGMLEKARHNADNMGLEISLFHGDAENLPFEDCSFDLVVNKYLLWTLQEPASAVREWKRVLKPGGMIFAIDGNWFDPRPDRYIKRMLYGLAERFAKKNQYNLIFKKSYGPIRNSLPLYEKISPKNISFLFSETGLMNTEISPLLEVQKFQRNRHSFSRRIFENNSIFLISGQKNEGHHHHHH | not soluble |
| MSLVSVIILASGNSQRMGQNKLFLKYQGKTFLEHTLTLVNQLDVLERILVVSPENQPAFPLPKNIQLILNHQWQEGQSSSIRLGTEQARGAGYLYLPSDQPLLTPKMLQLVLDKCQRNKIVVPLQKDGCPSSPVLFGNQFRQELLTLTGEKGGRMIYERFPEAVQMLRIATPGRLKDIDTPEEYQKLIQETNSLEHHHHHH | not soluble |
| MSLVTLADANPAQLAPFAGGAFEVAPLDVADEAALTVFLTRQDIVVSACPYFLNKTIARVAVATGTHYFDLTEDVETTAFIKALGETADVALVPQCGLAPGFICILGADMAARFERVKSVKMRVGALPLYPTNALSYNVTWSVDGLINEYCNPCEIVFEGRPTLVPALEGLEHVMIDGVSYEAFNTSGGLGTLTETLDGRVSDLSYKTLRYPGHAEIMKLLLRGLELADDRETLRRILNRAAPFTRKDVVVVFVEGHHHHHH | not soluble |
| MSLVTLRSLAQQLKVHVSTVSRVLNGTDDDARNAAAPETVERIRELAQQLNYRPNPHAIGLRTQKTRTVSVLVPQLSDLVVATIYEGIDAAAADSRYLTFVANTGDAPPRQRQLGEMALDRRVEGLIFADARRDDTRFLDEIARRGVPMVLVSRHLGTHCAVTCDDVAGGRMAAEHLLALGHRDIAVLAGEQYASTGCDRSAGFIAYCREQGVDIPAKWILHGPFDTRAGRLAGEKLFRSARKPSAVFAVNDFLAIGLMGAVRDRGLRAGHDVAIVGFNDTPLAAELPISLTTIRSPMHAMGYRSMELLLERIKGGRPASERLAPQLMVRASTCPREGIITITTDPNSSSVDKLAAALEHHHHHH | soluble |
| MSLVVGTDAHKYSHTFVATDEVGRQLGEKTVKATTAGHATAIMWAREQFGLELIWGIEDCRNMSARLERDLLAAGQQVVRVPTKLMAQTRKSARSRGKSDPIDALAVARAVLRETDLPLATHDETSRELKLLTDRRDVLVAQRTSAINRLRWLVHELDPERAPAARSLDAAKHQQALRTWLDTQPGLVAELARAELTDIIRLTGEINTLAQRISARVHQVAPALLEIPGCAELTAAKIVGEAAGVTRFKSEAAFACHAAVAPIPVWSGNTAGQMRLSRSGNRQLNAALHRIALTQIRMTDSRGQAYYQRLQDAGKTKRAALRCLKRRLARTVFQALRTVHQPSSEHTQPAAACHRSYCSSHLGEPPRLTDMTQKTRIQPLPPKRAGLLIRALYRIAKRRFGEVPEPFTVTAHHRRLLIANVVHEALLQRASRKLPPSVRELAVFWTARSIGCSWCVDFGAMLQRLDGLDVDRLTDIDNYATSSKFSDDERAAIAYAEAMTADPHSVTDEQVADLRARFGEAGVIELTYQIGVENMRARMNSALGITEQGFNSGDACRVPWAAPDVPSAESREGHHHHHH | not soluble |
| MSLYDPAEKYFNCTDIQRAFFEAGIKLGAIFHQYTGIPVNSENASMAEEFIERSTMIQPFVENVRISINNVKRSSGTYSYSSLNEKMLHAEVLINYNGKKVLGVLNYDEGLDYPVMYAKEVLEGHHHHHH | soluble |
| MSLYEPADGILETHVTWEDVEKDLQQSLGTRATFGENKRATNISDLKGFMSRIACLEPDWQNIEEGKELPSKFALKISSQLALVALSKIMNFEEGAGFSEEKLKKFSSLTKECHNREVDAYKVLMKFNHPDIPYTKGYMIIDFVPNIQTVEMYKSISADTIIPIIRGVATFSALGERLSKEDQHFVMGPTYLEMIFEDFFNDVELKKKFDTLRTTFEETENQEKVEKLITVFEHYKSLVKKYTNISDILGVKLVLNHGDLSQPNVLFSLDPQNKLKLEAIIDWQCVSRMPPGLDTARLLLGCLSGQERRERGTELLKVYHETYTSVFGEELFTFQELQELFNLFAPMMAMMLLPVMPSSIQSAIIPEEDKVSALKEVKTKMIAMMEDILEIHDNNLNHFSDFMKI | not soluble |
| MSLYKTADGREIFIVDAHTHFWDGSPENQRNIHGKQFVDCFYAYHSALSPPEEKWEKSRFEKYSEDDIYRDLFVDGPDDMAIIQTTVLGDFYKTGFGCIERSTRMAARNPGRFIVNGAFDPRDGEKALEYIHYMKETHDITGVKLYTAEWHGDSRGWKLTDPAAYKCFELCDKLGIRNMHVHKGPTIIPLSKDSFSVGDVDDAATDFQGLNWIVEHCGLPRLDDFCWIAVQETNVYGGLAVALPFIHTRPRYFAEVIAELLFWLGPDKILFGSDYAIWTPKWLVDRFWNFQIPEDIAAERGVQLTDEIKEKILGLNAARLYGIDVDAKRRDFADHPVLIAAEGHHHHHH | soluble |
| MSLYSKDGENYFIVDAHVALWDARRENQRNIHGKQFIDCFYDYHRNLSPASELWPYEDFLYQGGERLMKDLFTDGYVDHAIFQPAHLGAFYNTGFGQTEEAFALTRKHPGMLTYNHCFDPRFEEAGLKQLREDAARFGLKGVKLYTAEWKGDSRGYKLSDPWTYRYLDACRELGIKNIHVHKGPTIRPLDRDAFDVADVDAAASDFTDLNFVVEHCGLPRLEDFCWIATQEPNVHAGLAVAIPFMHTRPRYFAQIIGELLYWLDEDRIQFSSDYALWTPRWIVEQFVDFRIPDDMTGEYPQLTVAQKKKILGLNAAAMYDIEVPAEGHHHHHH | soluble |
| MSLYYLFAPQFHPSKTVYVYVDRDDTADSIYNKIRQTGHVNKFTGFQWMAKYRKFDQNIHTGRYAIRPNENVYHVFSRFFRGYQEPMNLTIGSIRTLDRLARSIGKQLMIDSAEIARQLFDSAFQTEMGYTPVTMPCLFIPETYQVYWDMSVDDFFKRMQTEHKRFWNDERLAQATAIGMTPEEVCTLASIVEEETNNNEEKPMVAGLYINRLHTGMPLQADPTIKFALQDFGLRRITNEHLKVNSPYNTYINSGLPPGPIRIPSKKGLDSVLNYTKHNYIYMCAKEDFSGTHNFASNYADHMANARKYWKALNERKEGHHHHHH | not soluble |
| MSMATVDPWMQNLPQITNQDFFHSSGIECWNRQFPDHRVVEENGPIKTKDALMILYFITVRNIRKNRNTITRIRDALKSPVSIFRRSPKLSLQEDVLSWQKSPESLAASEYGSKLFVQFLKQQTSADDVDFWLACAKHRWTEMTRDGYEYAAYMIYNTYVFWTCERKIDLLDKFCFVDDDGGTPRDVFITAQAYVGTKFPKDSHKKFLQDPIYLNFLHSVSSAANQQKK | not soluble |
| MSMKGKETMSNEKIVVGKFGATYGIRGWLKVFSYTDNAESIFDYSPWYINQKGKWVEYKVESWKRHNKGMVAKLEGMDVREDAHLMTNFEIAIDPAVLPELSEDEFYWRELFGMHVVTTKGYDLGVVTDMLETGSNDVLVVKANLKDAFGQKERLIPFLEEQVIIKVDREAQRIEVDWDPGFLEHHHHHH | soluble |
| MSNDNEVPGSMVIVAQGPDDQYAYEVPPIDSAAVAGNMFGDLIQREIYLQKNIYYPVRSIFEQGTKEKKEINKKVSDQVDGLLKQITQGKREATRQERVDVMSAVLHKMESDLEGYKKTFTKGPFIDYEKQSSLSIYEAWVKIWEKNSWEERKKYPFQQLVRDELERAVAYYKQDSLSEAVKVLRQELNKQKALKEKED | soluble |
| MSNFEKRNRKMAEKNIRKPKQERSIEKRNKILQVAKDLFSDKTYFNVTTNEIAKKADVSVGTLYAYFASKEDILTALLKRYNDFFLTTIFADINSQDSLDRFKKNPKEWLNVLINQLLAAEDKIFHAQIEMLAYAIPQAKALLEEHNNNLKNLTYKCLLYYSDQAANPSFKTLSLVVFDFISALVDELLYHEHTQEEAHQIKKTGIDSLDLIIKSYL | soluble |
